The assay deals with EcoWI endonuclease. Put plainly: SEC; analytical Superdex 200 10/300 GL, 4°C, 0.38 ml/min, 100 mM NaCl, 20 mM Tris-HCl pH 8, 1 mM DTT, 0.1 mM EDTA, 5% glycerol; purified EcoWI at 2.7 mg/ml; relative molecular weight from Kav against standard proteins. In general terms: Size exclusion chromatography separates by hydrodynamic size, large species first.

One may read the stoichiometry N as a count of units in the complex or per binding partner.

On to EcoWI endonuclease (enzyme), for which the stoichiometry N amounted to 2.
